Data taken from patent US20240294650A1 (Alector, published 2024).

How the values were obtained:
[1] = target: T1, endogenous murine MerTK on bone marrow-derived macrophages (mouse, UniProt Q60805 19-994); test: FACS, mouse BMDM, WT minus MerTK KO
T1 construct: whole, on cells; MFI on MerTK KO BMDM subtracted; also called BMDM WT-KO
T1 sequence (looked up): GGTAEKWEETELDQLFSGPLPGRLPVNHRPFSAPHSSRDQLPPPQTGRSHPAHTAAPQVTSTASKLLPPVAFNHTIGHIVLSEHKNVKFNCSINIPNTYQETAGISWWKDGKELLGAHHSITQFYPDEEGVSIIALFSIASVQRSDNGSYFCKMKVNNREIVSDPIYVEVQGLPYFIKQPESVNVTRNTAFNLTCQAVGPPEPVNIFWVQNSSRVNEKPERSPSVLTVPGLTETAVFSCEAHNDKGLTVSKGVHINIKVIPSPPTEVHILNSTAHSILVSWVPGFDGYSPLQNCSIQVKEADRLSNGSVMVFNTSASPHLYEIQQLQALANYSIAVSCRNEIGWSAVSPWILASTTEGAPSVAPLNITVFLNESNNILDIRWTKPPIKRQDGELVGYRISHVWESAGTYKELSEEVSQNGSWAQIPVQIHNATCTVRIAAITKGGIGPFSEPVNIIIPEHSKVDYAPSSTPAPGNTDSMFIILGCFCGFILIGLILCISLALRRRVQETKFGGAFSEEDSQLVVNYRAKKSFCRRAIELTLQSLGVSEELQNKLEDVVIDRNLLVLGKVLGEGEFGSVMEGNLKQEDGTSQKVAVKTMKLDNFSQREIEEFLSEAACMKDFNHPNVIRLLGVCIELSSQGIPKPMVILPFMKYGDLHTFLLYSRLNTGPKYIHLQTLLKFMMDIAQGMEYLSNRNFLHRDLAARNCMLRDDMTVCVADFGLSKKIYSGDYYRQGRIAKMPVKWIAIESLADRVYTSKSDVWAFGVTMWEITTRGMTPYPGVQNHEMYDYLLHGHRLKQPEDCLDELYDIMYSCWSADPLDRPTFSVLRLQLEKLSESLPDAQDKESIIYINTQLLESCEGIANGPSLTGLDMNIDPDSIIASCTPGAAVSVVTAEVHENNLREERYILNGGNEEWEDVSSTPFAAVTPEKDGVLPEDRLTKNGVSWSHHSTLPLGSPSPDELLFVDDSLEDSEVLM
Method in brief: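 Bone marrow cells from MerTK WT and KO mice differentiated into macrophages with 50 ng/ml M-CSF for seven days. Antibodies at 10 μg/ml bound 60 min on ice, then PE anti-human IgG with Fc block 30 min on ice. Flow cytometry read-out as MFI, WT signal minus KO.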

[2] = target: T2, human MerTK (human, UniProt Q12866 21-999); test: cell-based or functional assay
T2 sequence: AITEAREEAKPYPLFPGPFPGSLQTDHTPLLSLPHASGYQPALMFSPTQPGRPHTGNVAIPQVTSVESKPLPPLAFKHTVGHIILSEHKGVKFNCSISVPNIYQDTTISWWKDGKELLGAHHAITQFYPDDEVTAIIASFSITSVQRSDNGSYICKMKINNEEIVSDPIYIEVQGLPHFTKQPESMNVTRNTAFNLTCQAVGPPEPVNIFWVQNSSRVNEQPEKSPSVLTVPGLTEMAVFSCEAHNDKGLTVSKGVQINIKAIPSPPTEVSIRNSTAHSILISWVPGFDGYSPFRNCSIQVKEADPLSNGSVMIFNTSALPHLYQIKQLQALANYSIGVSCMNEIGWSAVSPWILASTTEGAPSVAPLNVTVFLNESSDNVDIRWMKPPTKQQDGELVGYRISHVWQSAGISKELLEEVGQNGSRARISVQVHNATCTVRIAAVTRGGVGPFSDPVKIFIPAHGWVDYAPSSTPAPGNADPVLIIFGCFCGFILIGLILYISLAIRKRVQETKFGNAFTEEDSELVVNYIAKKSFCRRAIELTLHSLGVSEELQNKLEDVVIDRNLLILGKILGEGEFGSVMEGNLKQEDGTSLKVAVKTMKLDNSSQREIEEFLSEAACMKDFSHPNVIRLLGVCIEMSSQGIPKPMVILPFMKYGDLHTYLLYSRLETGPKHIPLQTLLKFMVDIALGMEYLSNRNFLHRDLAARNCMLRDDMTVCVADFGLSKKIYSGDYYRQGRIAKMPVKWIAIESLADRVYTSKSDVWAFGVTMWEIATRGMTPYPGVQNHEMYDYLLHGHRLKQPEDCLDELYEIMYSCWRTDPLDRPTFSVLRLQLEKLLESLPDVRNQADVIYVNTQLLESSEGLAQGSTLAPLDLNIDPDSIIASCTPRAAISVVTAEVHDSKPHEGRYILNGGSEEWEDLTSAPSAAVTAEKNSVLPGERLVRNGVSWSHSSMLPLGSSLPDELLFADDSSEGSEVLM

B1: MTK-225 (antibody, human IgG1, V domains shown)
VH: EVQLQQSGPELVKPGASVKIFCKASGYTFTAYNMDWVKQSHGKSLEWIGDINPNNGGTIYNQKFKGKATLTVDKSSSTAYMELRSLTSEDTAVYYCARRRRYGNTYYWYFDVWGTGTTVTVSS
VL: DIQMTQSPASLSVSVGETVTITCRASENIYSSLAWYQQKQGKSPQLLVYAATNLADGVPSRFSGSGSGTQFYLKINGLQSEDFGSYYCQHFWGTSYTFGGGTKLEIK
MFI [1]: 619 MFI
Fold increase in PAKT over IgG control [2]: 4.5 fold

B2: MTK-215 (antibody, human IgG1, V domains shown)
VH: EVQLVESGGGLVKPGGSLKLSCAASGFIFSDYGMHWVRQAPEKGLEWVAYISSGSSTIYYGDTVKGRFTISRDNAKNTLFLQMTSLRSEDTAMYYCAKGGRYGAMDYWGHGTSVTVSS
VL: DIVLTQSPATLSVTPGDSVSLSCRASQSISNNLHWYQQKSHESPRLLIKNPSQSISGIPSRFGARGSGTDFTLIINSVETEDLGVYFCQQSNSWPFTFGSGTKLEIK
MFI [1]: 466 MFI
EC50 (nM), pAKT in SK-MEL-5 cells [2]: 208 nM
Fold increase in PAKT over IgG control [2]: 2.6 fold

B3: MTK-207 (antibody, human IgG1, V domains shown)
VH: QVQLKESGPGLVAPSQSLSITCTVSGISLTSYGVSWVRQPPGKGLEWLGIIWGDGSTNYHSALISRLSISKDNSKSQVFLKLNSLQTDDTATYYCAKGRYGNYEDWYFDVWGTGTTVTVSS
VL: DIQMTQSPASLSASVGETVTITCRASGNIHNYLAWYQQKQGKSPQLLVYNAKTLAAGVPSRFSGSGSGTQYSLKINSLQPEDFGSYYCQHFWSIPLTFGAGTKLELK
MFI [1]: 989 MFI
Fold increase in PAKT over IgG control [2]: 1 fold
